Reference: patent EP4676945A2

Target: fibrin
Test: cell adhesion assay: HEK293 cells transfected with the CAR, 30 minutes on fibrin-coated plates, washed with PBS, adhered cells counted by Hoechst stain; reference control-CAR

fold increase of cell adhesion to fibrin against the control-CAR construct: 9.8 fold
B1: fibrin-specific FIB2-CAR (PMC 1946, FIB2scfvCAR), expressed on transfected/transduced HEK293 cells (receptor)
chain: DIQLTQSPSSLSASVGDRVTITCRASQNIGVNLNWYQQRPGKGPKLLVSSTFSLQSGVPSRFSASGAGTNFTLTISSLQPEDYVTYYCQQSYSSPFTFGPGTKVDIKGGGGSGGGGSGGGGSEVQLVESGGGAVQPGRSLRLSCAASGVSFSNIGMHWVRQAPGKGLEWVALISSDGRHTHYADSVKGRFTISRDNSENTLYLQINGLRADDTAVYYCAKGLDTRARYMGKFYTFDYWGQGTLVTVSSASAIEVMYPPPYLDNEKSNGTIIHVKGKHLCPSPLFPGPSKPFWVLVVVGGVLACYSLLVTVAFIIFWVKRGRKKLLYIFKQPFMRPVQTTQEEDGCSCRFPEEEEGGCELRVKFSRSADAPAYQQGQNQLYNELNLGRREEYDVLDKRRGRDPEMGGKPRRKNPQEGLYNELQKDKMAEAYSEIGMKGERRRGKGHDGLYQGLSTATKDTYDALHMQALPPR
